Assay results from the supplement of paper PMC5998384.

Columns and labels:
[1] = tested on: HeLa Kyoto; assay: solubility in G1/S (NP-40 vs SDS abundance) (log2 ratio); higher = more soluble; conditions: cell cycle stage: G1/S
[2] = tested on: HeLa Kyoto; assay: solubility change mitosis vs G1/S (difference of NP-40 vs SDS log2 ratios) (log2 ratio difference); higher = more soluble in mitosis
[3] = tested on: HeLa Kyoto; assay: thermal stability score vs G1/S (z-score of summed log2 fold changes over temperatures); higher = more thermally stable than in G1/S
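Throughout, for solubility change mitosis vs G1/S (difference of NP-40 vs SDS log2 ratios): synchronized HeLa Kyoto cells (double thymidine block for G1/S, nocodazole release for mitosis), protein amounts in NP-40 versus SDS lysates quantified by mass spectrometry, three biological replicates.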
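Throughout, for solubility in G1/S (NP-40 vs SDS abundance): HeLa Kyoto cells arrested at G1/S by double thymidine block, proteins quantified by TMT10plex mass spectrometry in mild NP-40 versus SDS extracts, three biological replicates.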
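Throughout, for thermal stability score vs G1/S (z-score of summed log2 fold changes over temperatures): synchronized HeLa Kyoto cells, proteins quantified by TMT10plex mass spectrometry, three biological replicates, mitosis taken 0.5 h after nocodazole release, G1/S directly after double thymidine block.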

| Substance | solubility in G1/S (log2) [1] | solubility change mitosis (log2) [2] | thermal stability score ([3]; cell cycle stage: early G1 (4.5 h after nocodazole release)) | thermal stability score ([3]; cell cycle stage: mitosis) |
| --- | --- | --- | --- | --- |
| SHPRH | -0.418 | 0.00438 | – | – |
| SMG6 | -0.859 | 0.113 | – | – |
| MNYVGQLAGQVFVTVKELYKGLNPATLSGCIDIIVIRQPNGNLQCSPFHVRFGKMGVLRSREKVVDIEINGESVDLHMKLGDNGEAFFVQETDNDQEVIPMHLATSPILSEGASRMECQLKRGSVDRMRGLDPSTPAQVIAPSETPSSSSVVKKRRKRRRKSQLDSLKRDDNMNTSEDEDMFPIEMSSDEAMELLESSRTLPNDIPPFQDDIPEENLSLAVIYPQSASYPNSDREWSPTPSPSGSRPSTPKSDSELVSKSTERTGQKNPEMLWLWGELPQAAKSSSPHKMKESSPLSSRKICDKSHFQAIHSESSDTFSDQSPTLVGGALLDQNKPQTEMQFVNEEDLETLGAAAPLLPMIEELKPPSASVVQTANKTDSPSRKRDKRSRHLGADGVYLDDLTDMDPEVAALYFPKNGDPSGLAKHASDNGARSANQSPQSVGSSGVDSGVESTSDGLRDLPSIAISLCGGLSDHREITKDAFLEQAVSYQQFVDNPAIIDDPNLVVKIGSKYYNWTTAAPLLLAMQAFQKPLPKATVESIMRDKMPKKGGRWWFSWRGRNTTIKEESKPEQCLAGKAHSTGEQPPQLSLATRVKHESSSSDEERAAAKPSNAGHLPLLPNVSYKKTLRLTSEQLKSLKLKNGPNDVVFSVTTQYQGTCRCEGTIYLWNWDDKVIISDIDGTITRSDTLGHILPTLGKDWTHQGIAKLYHKVSQNGYKFLYCSARAIGMADMTRGYLHWVNERGTVLPQGPLLLSPSSLFSALHREVIEKKPEKFKVQCLTDIKNLFFPNTEPFYAAFGNRPADVYSYKQVGVSLNRIFTVNPKGELVQEHAKTNISSYVRLCEVVDHVFPLLKRSHSSDFPCSDTFSNFTFWREPLPPFENQDIHSASA [LPIN1] | 0.0583 | -0.0904 | – | – |
| MGIWQRLLLFGGVSLRAGGGATAPLGGSRAMVCGRQLSGAGSETLKQRRTQIMSRGLPKQKPIEGVKQVIVVASGKGGVGKSTTAVNLALALAANDSSKAIGLLDVDVYGPSVPKMMNLKGNPELSQSNLMRPLLNYGIACMSMGFLVEESEPVVWRGLMVMSAIEKLLRQVDWGQLDYLVVDMPPGTGDVQLSVSQNIPITGAVIVSTPQDIALMDAHKGAEMFRRVHVPVLGLVQNMSVFQCPKCKHKTHIFGADGARKLAQTLGLEVLGDIPLHLNIREASDTGQPIVFSQPESDEAKAYLRIAVEVVRRLPSPSE [NUBPL] | 0.45 | 0.138 | – | – |
| ARHGEF11 | -0.0113 | -0.0196 | – | – |
| MKLHCEVEVISRHLPALGLRNRGKGVRAVLSLCQQTSRSQPPVRAFLLISTLKDKRGTRYELRENIEQFFTKFVDEGKATVRLKEPPVDICLSKAISSSLKGFLSAMRLAHRGCNVDTPVSTLTPVKTSEFENFKTKMVITSKKDYPLSKNFPYSLEHLQTSYCGLVRVDMRMLCLKSLRKLDLSHNHIKKLPATIGDLIHLQELNLNDNHLESFSVALCHSTLQKSLRSLDLSKNKIKALPVQFCQLQELKNLKLDDNELIQFPCKIGQLINLRFLSAARNKLPFLPSEFRNLSLEYLDLFGNTFEQPKVLPVIKLQAPLTLLESSARTILHNRIPYGSHIIPFHLCQDLDTAKICVCGRFCLNSFIQGTTTMNLHSVAHTVVLVDNLGGTEAPIISYFCSLGCYVNSSDMLK [PPIL5] | -0.0487 | -0.0159 | – | – |
| MDIAIHHPWIRRPFFPFHSPSRLFDQFFGEHLLESDLFPTSTSLSPFYLRPPSFLRAPSWFDTGLSEMRLEKDRFSVNLDVKHFSPEELKVKVLGDVIEVHGKHEERQDEHGFISREFHRKYRIPADVDPLTITSSLSSDGVLTVNGPRKQVSGPERTIPITREEKPAVTAAPKK [CRYAB] | -0.171 | 0.00397 | – | – |
| MAREPRKNAALDAQSAEDQTGLLTVKVEKEEASALTAEVRAPCSPARGPERSRQRFRGFRYPEAAGPREALSRLRELCGQWLQPEMHSKEQILELLVLEQFLTILPGNLQSWVREQHPESGEEVVVLLEYLERQLDEPAPQVPVGDQGQELLCCKMALLTQTQGSQSSQCQPMKALFKHESLGSQPLHDRVLQVPGLAQGGCCREDAMVASRLTPGSQGLLKMEDVALTLTPGWTQLDSSQVNLYRDEKQENHSSLVSLGGEIQTKSRDLPPVKKLPEKEHGKICHLREDIAQIPTHAEAGEQEGRLQRKQKNAIGSRRHYCHECGKSFAQSSGLTKHRRIHTGEKPYECEDCGKTFIGSSALVIHQRVHTGEKPYECEECGKVFSHSSNLIKHQRTHTGEKPYECDDCGKTFSQSCSLLEHHKIHTGEKPYQCNMCGKAFRRNSHLLRHQRIHGDKNVQNPEHGESWESQGRTESQWENTEAPVSYKCNECERSFTRNRSLIEHQKIHTGEKPYQCDTCGKGFTRTSYLVQHQRSHVGKKTLSQ [ZKSCAN4] | -0.299 | 0.361 | – | – |
| SLC7A6 | -0.00617 | -0.122 | – | – |
| MPVQAAQWTEFLSCPICYNEFDENVHKPISLGCSHTVCKTCLNKLHRKACPFDQTAINTDIDVLPVNFALLQLVGAQVPDHQSIKLSNLGENKHYEVAKKCVEDLALYLKPLSGGKGVASLNQSALSRPMQRKLVTLVNCQLVEEEGRVRAMRAARSLGERTVTELILQHQNPQQLSANLWAAVRARGCQFLGPAMQEEALKLVLLALEDGSALSRKVLVLFVVQRLEPRFPQASKTSIGHVVQLLYRASCFKVTKRDEDSSLMQLKEEFRSYEALRREHDAQIVHIAMEAGLRISPEQWSSLLYGDLAHKSHMQSIIDKLQSPESFAKSVQELTIVLQRTGDPANLNRLRPHLELLANIDPNPDAVSPTWEQLENAMVAVKTVVHGLVDFIQNYSRKGHETPQPQPNSKYKTSMCRDLRQQGGCPRGTNCTFAHSQEELEKYRLRNKKINATVRTFPLLNKVGVNNTVTTTAGNVISVIGSTETTGKIVPSTNGISNAENSVSQLISRSTDSTLRALETVKKVGKVGANGQNAAGPSADSVTENKIGSPPKTPVSNVAATSAGPSNVGTELNSVPQKSSPFLTRVPVYPPHSENIQYFQDPRTQIPFEVPQYPQTGYYPPPPTVPAGVAPCVPRFVRSNNVPESSLPPASMPYADHYSTFSPRDRMNSSPYQPPPPQPYGPVPPVPSGMYAPVYDSRRIWRPPMYQRDDIIRSNSLPPMDVMHSSVYQTSLRERYNSLDGYYSVACQPPSEPRTTVPLPREPCGHLKTSCEEQIRRKPDQWAQYHTQKAPLVSSTLPVATQSPTPPSPLFSVDFRADFSESVSGTKFEEDHLSHYSPWSCGTIGSCINAIDSEPKDVIANSNAVLMDLDSGDVKRRVHLFETQRRTKEEDPIIPFSDGPIISKWGAISRSSRTGYHTTDPVQATASQGSATKPISVSDYVPYVNAVDSRWSSYGNEATSSAHYVERDRFIVTDLSGHRKHSSTGDLLSLELQQAKSNSLLLQREANALAMQQKWNSLDEGRHLTLNLLSKEIELRNGELQSDYTEDATDTKPDRDIELELSALDTDEPDGQSEPIEEILDIQLGISSQNDQLLNGMAVENGHPVQQHQKEPPKQKKQSLGEDHVILEEQKTILPVTSCFSQPLPVSISNASCLPITTSVSAGNLILKTHVMSEDKNDFLKPVANGKMVNS [RC3H2] | 0.279 | -0.128 | – | – |
| METMRAQRLQPGVGTSGRGTLRALRPGVTGAAAATATPPAGPPPAPPPPAPPPPPLLLSGAPGLPLPPGAAGSPAVLREAVEAVVRSFAKHTQGYGRVNVVEALQEFWQMKQSRGADLKNGALVVYEMVPSNSPPYVCYVTLPGGSCFGSFQFCPTKAEARRSAAKIALMNSVFNEHPSRRITDEFIEKSVSEALASFNGNREEADNPNTGIGAFRFMLESNKGKSMLEFQELMTVFQLLHWNGSLKAMRERQCSRQEVLAHYSHRALDDDIRHQMALDWVSREQSVPGALSRELASTERELDEARLAGKELRFHKEKKDILVLAAGQLGNMHSSNC [LIX1L] | 0.528 | -0.1 | – | – |
| MEKMSRVTTALGGSVLTGRTMHCHLDAPANAISVCRDAAQVVVAGRSIFKIYAIEEEQFVEKLNLRVGRKPSLNLSCADVVWHQMDENLLATAATNGVVVTWNLGRPSRNKQDQLFTEHKRTVNKVCFHPTEAHVLLSGSQDGFMKCFDLRRKDSVSTFSGQSESVRDVQFSIRDYFTFASTFENGNVQLWDIRRPDRCERMFTAHNGPVFCCDWHPEDRGWLATGGRDKMVKVWDMTTHRAKEMHCVQTIASVARVKWRPECRHHLATCSMMVDHNIYVWDVRRPFVPAAMFEEHRDVTTGIAWRHPHDPSFLLSGSKDSSLCQHLFRDASQPVERANPEGLCYGLFGDLAFAAKESLVAAESGRKPYTGDRRHPIFFKRKLDPAEPFAGLASSALSVFETEPGGGGMRWFVDTAERYALAGRPLAELCDHNAKVARELGRNQVAQTWTMLRIIYCSPGLVPTANLNHSVGKGGSCGLPLMNSFNLKDMAPGLGSETRLDRSKGDARSDTVLLDSSATLITNEDNEETEGSDVPADYLLGDVEGEEDELYLLDPEHAHPEDPECVLPQEAFPLRHEIVDTPPGPEHLQDKADSPHVSGSEADVASLAPVDSSFSLLSVSHALYDSRLPPDFFGVLVRDMLHFYAEQGDVQMAVSVLIVLGERVRKDIDEQTQEHWYTSYIDLLQRFRLWNVSNEVVKLSTSRAVSCLNQASTTLHVNCSHCKRPMSSRGWVCDRCHRCASMCAVCHHVVKGLFVWCQGCSHGGHLQHIMKWLEGSSHCPAGCGHLCEYS [WDR24] | -0.232 | -0.106 | – | – |
| MDPVVLSYMDSLLRQSDVSLLDPPSWLNDHIIGFAFEYFANSQFHDCSDHVSFISPEVTQFIKCTSNPAEIAMFLEPLDLPNKRVVFLAINDNSNQAAGGTHWSLLVYLQDKNSFFHYDSHSRSNSVHAKQVAEKLEAFLGRKGDKLAFVEEKAPAQQNSYDCGMYVICNTEALCQNFFRQQTESLLQLLTPAYITKKRGEWKDLITTLAKK [SENP8] | 0.62 | -0.151 | – | – |
| MVPPVQVSPLIKLGRYSALFLGVAYGATRYNYLKPRAEEERRIAAEEKKKQDELKRIARELAEDDSILK [ATP5I] | -0.147 | 0.197 | – | – |
| MASDSGNQGTLCTLEFAVQMTCQSCVDAVRKSLQGVAGVQDVEVHLEDQMVLVHTTLPSQEVQALLEGTGRQAVLKGMGSGQLQNLGAAVAILGGPGTVQGVVRFLQLTPERCLIEGTIDGLEPGLHGLHVHQYGDLTNNCNSCGNHFNPDGASHGGPQDSDRHRGDLGNVRADADGRAIFRMEDEQLKVWDVIGRSLIIDEGEDDLGRGGHPLSKITGNSGERLACGIIARSAGLFQNPKQICSCDGLTIWEERGRPIAGKGRKESAQPPAHL [CCS] | – | 0.0319 | 0.914 | 0.694 |
